# Data published in publication PMC10333326.
# Target: NFAT5 (TonEBP) (UniProt O94916)
# Experiment: co-immunoprecipitation, Western blot
# Details: reference: EZH2 wild type; sites S21
substance,measurement,value
EZH2 (from UniProt Q15910) EZH2 S21A,binding against the reference,weaker
